According to patent US20160220669A1 (Hoffmann-La Roche, published 2016):

Columns and labels:
[1] = molecular target: human wildtype CSF-1R (full-length) (human, UniProt P07333 20-972); assay: cell-based or functional assay
[2] = molecular target: CSF-1R of cynomolgous monocytes (cynomolgous); assay: cell-based or functional assay

Binder	% inhibition 10 µg/ml antibody concentration (BeWo cells, CSF-1 induced growth) [1]	% survival (cynomolgous monocytes with huCSF-1, 5 µg/ml antibody) [2]
Mab 2F11 (antibody, V domains shown) VH: QVQLKESGPGLVAPSQSLSITCTVSGFSLTTYDISWIRQSPGKGLEWLGVIWTDGGTNYNSPFMSRLSIRKDNSKSQVFLKMNRLQTDDTAIYYCVRDQRLYFDVWGAGTTVTVSS VL: NIVMTQSPKSMSMSVGERVTLNCKASEDVNTYVSWYQQQPEQSPKLLIYGASNRYTGVPDRFTGGGSTTDFTLTISSVQAEDLADYFCGQSFSYPTFGTGTKLEIK	70%	4%
Mab 2E10 (antibody, V domains shown) VH: QVQLKESGPGLVAPSKSLSITCTVSGSSLDSFDISWIRQSPGKGLEWLGVIWTGGGTNYNSGFMSRLRITKDNSKSQVLLKMNSLQSDDTAIYYCVRDPRLYFDVWGAGTTVTVSS VL: NIVMTQSPKSMSMSVGERVTLSCKASEDVVTYVSWYQQKPDQSPKLLIYGASNRYTGVPDRFTGSGSATDFTLTISSVQAEDLADYYCGQTFSYPTFGTGTKLEIK	102%	17%
Mab 2H7 (antibody, V domains shown) VH: QVQLKESGPGLVAPSKSLSITCTVSGSSLDSFDISWIRQPPGKGLEWLGVIWTGGGTNYNSGFMSRLRISKDNSKSQVFLKMSSLQSDDTAIYYCVRDPRLYFDVWGAGTTVTVSS VL: NIVMTQSPKSMSMSVGERVTLSCKASEDVVTYVSWYQQKPEQSPKLLIYGASNRYTGVPDRFTGSGSATDFTLTISSIQAEDLADYYCGQTFSYPTFGTGTKLEIK	103%	8%
Mab 1G10 (antibody, V domains shown) VH: RVQLKESGPGLVAPSQSLSITCTVSGFSLTSYDISWIRQSPGKGLEWLGVIWSGGGTNYNSPFMSRLRISKDDSRSQVFLKVNRLQTDDTAIYYCVRDLRLYFDVWGAGTTVTVSS VL: KIVMTQSPKSMSVSVGERVSLSCKASEDVGTYVSWYQQKPEQSPKLLIYGSSNRYTGVPDRFTGSGSATDFTLTISSVQAEDLADYSCGQSFTYPTFGTGTKLEIK	99%	2%
